Experiment [1] deals with release of arachidonic acid from HUVEC (PLA2). Kind of experiment: Release of [3H]-labeled arachidonic acid from HUVEC. Type of experiment: cell-based, human. The settings on record: for inhibition of release of arachidonic acid from HUVEC by PLA2 inhibitors: 40 μM AACOCF3, 1 μM OPC, 1 μM BEL. As to the method:
HUVEC were cultured for 24 hours in the presence of [^3H]-labeled arachidonic acid. Then the medium was replaced by DMEM and the culture was continued in the presence of […] of CF6 at 37° C. for an additional 30 minutes. Then the release of the [^3H]-labeled arachidonic acid into the liquid culture was examined. […] The same test was carried out in the presence of 1 μM of bradykinin.
Next, the effects of a cPLA2 inhibitor (40 μM of AACOCF3: arachidonic acid […]), an sPLA2 inhibitor (1 μM of OPC; oleyloxyethylphosphorylcholine) and an iPLA2 inhibitor (1 μM of BEL: […]) of inhibiting the release of arachidonic acid form HUVEC were examined. […] Namely, the PLA2 participating in the release of arachidonic acid is cPLA2 (FIGS. 20 and 21).

The test system of experiment [2] is PGI2 production of human umbilical venal endothelial cells (HUVEC). Briefly: Inhibition of PGI2 production (6-keto-PGF1α secreted into the medium) in HUVEC. Type of experiment: cell-based. As to the method:
The activity of inhibiting the PGI2 production was evaluated by measuring the stable metabolite of PGI2 (6-keto-PGF1α) secreted into the medium of smooth muscle cells collected from SHR mesenteric artery or human umbilical venal endothelial cells (HUVEC). Namely, the smooth muscle cells collected from SHR mesenteric artery were subcultured in a Dulbecco's modified Eagle medium (DMEM) containing 10% (v/v) of fetal calf serum until these cells attained the confluent state. HUVEC were proliferated in a synthetic medium (HuMedia, Kurabo Industries) containing 2% (v/v) of fetal calf serum, 10 ng/ml of EGF, 5 ng/ml of bFGF, 1 μg/ml of hydrocortisone and 10 μg/ml of heparin. The smooth muscle cells collected from SHR mesenteric artery or HUVEC were incubated for 30 minutes in the DMEM medium containing the sample to be analyzed and 6-keto-PGF1α secreted into the medium during the incubation period was determined.
HUVEC were cultured at 37° C. for 30 minutes in the DMEM containing 1, 10 and 100 nM of rCF6 prepared in Referential Example 2 and thus the inhibition of the PGI2 production by CF6 was examined. The production of PGI2 was measured with the guidance of the amount of 6-keto-PGF1α, which is a stable metabolite of PGI2, secreted into the medium. […] The same test was carried out in the presence of 1 μM of bradykinin.
Further, 10 nM of CF6 inhibited the increase in the PGI2 production due to 2 μg/ml of ionomycin but not the increase therein due to 10 ng/ml of arachidonic acid and 10 ng/ml of PGH2.

Experiment [3] deals with rats with normal blood pressure (WKY). Briefly: Arterial blood pressure of anesthetized WKY, measured in the open manner from the carotid artery. Type of experiment: in vivo, rat. To be noted: WKY 15 weeks of age; rCF6 0.3, 1.0, 3.0 μg/kg bolus into femoral vein. As to the method:
(§1) Blood pressure was measured in the open manner by inserting catheters directly into the aorta of rats anesthetized with 75 mg/kg of ketamine and 15 mg/kg of xylazine hydrochloride. Namely, two polyethylene catheters filled with physiological saline containing 20 U/ml of heparin were inserted respectively into the left carotid artery and the left femoral vein. Then the catheter inserted into the left carotid artery was connected to a pressure detector (Carrier Amplifier AP-601G, Nihon Kohden Co.). Each sample was dissolved in 200 μL of physiological saline and then administered via the vena cava.
(§2) SHR and WKY each 16 weeks of age were anesthetized and the anti-rCF6 antibody (0.3, 1.0 and 3.0 μg/kg) was administered by bolus injection into the femoral vein. Then the arterial blood pressure was measured in the open manner from the carotid artery.
(§3) Effects of the anti-rCF6 antibody on the effect of bradykinin of lowering rat blood pressure were examined. SHR and WKY each 16 weeks of age were anesthetized and bradykinin (0.3, 1.0 and 3.0 μg/kg) was cumulatively administered by bolus injection into the femoral vein. Then the arterial blood pressure was measured in the open manner from the carotid artery. […]
(§4) Effects of rCF6 on rat blood pressure were examined. […] Then the arterial blood pressure was measured in an open manner from the carotid artery.

Experiment [4] concerns spontaneously hypertensive rats (SHR). Kind of experiment: Arterial blood pressure of anesthetized SHR, measured in the open manner from the carotid artery. Type of experiment: in vivo, rat. To be noted: SHR 15 weeks of age; rCF6 0.3, 1.0, 3.0 μg/kg bolus into femoral vein. As to the method:
as §1, §2, §3, §4

As to `CCCCC/C=C\C/C=C\C/C=C\C/C=C\CCCC(=O)C(F)(F)F` [AACOCF3, arachidonic acid 3-fluoromethyl ketone], in experiment [1], the “inhibition of release of arachidonic acid from HUVEC by PLA2 inhibitors” value (“inhibition” below) is “inhibited the release of arachidonic acid”.
Consider `O=C1O/C(=C/Br)CCC1c1cccc2ccccc12` (stereo not drawn) [BEL, bromoenolcholine], for which the “inhibition” value in experiment [1] is “cPLA2 inhibitor alone inhibited”.
Consider `CCCCCCCC/C=C\CCCCCCCCOCCOP(=O)([O-])OCC[N+](C)(C)C` [OPC, oleyloxyethylphosphorylcholine], for which the “inhibition” value in experiment [1] was “cPLA2 inhibitor alone inhibited”.

B1: rCF6: rat coupling factor 6, a 76 amino acid subunit of H+ ATP synthase (SEQ ID NO:2), recombinantly produced (protein)
chain: NKELDPVQKLFLDKIREYKAKRLASGGPVDTGPEYQQEVDRELFKLKQMYGKGEMDKFPTFNFEDPKFEVLDKPQS
modifications: Rat
For the molecule B1, the “increase in PGI2 production due to PGH2” value in experiment [2] (10 nM CF6, 10 ng/ml PGH2) is “not”. Further, in experiment [2] (10 nM CF6, 10 ng/ml arachidonic acid), the “increase in PGI2 production due to arachidonic acid” value is “not”. In addition, in experiment [2] (10 nM CF6, 2 μg/ml ionomycin), the “increase in PGI2 production due to ionomycin” value is reported as “inhibited”. For the same molecule, the “PGI2 production (6-keto-PGF1α)” value in experiment [2] (HUVEC, 1, 10 and 100 nM rCF6, 37° C., 30 minutes) is on record as “dose-dependently inhibited”. The “increase in PGI2 production due to bradykinin” value in experiment [2] (HUVEC, 1, 10 and 100 nM rCF6, in the presence of 1 μM bradykinin) was “dose-independently inhibited”. In addition, the “average arterial blood pressure” value in experiment [3] and in experiment [4] was “dose-dependently increased” each time. The “release of [3H]-labeled arachidonic acid” value in experiment [1] (HUVEC, 1, 10 and 100 mM CF6, 37° C., 30 minutes) was “dose-dependently inhibited”. In addition, in experiment [1] (HUVEC, CF6 1, 10 and 100 mM, in the presence of 1 μM bradykinin), the “bradykinin-promoted release of [3H]-labeled arachidonic acid” value is recorded as “dose-dependently inhibited”.

For the origin of these results see patent US7049079B1, “Coupling factor 6 inhibitor and potentiator and use thereof” (Daiichi Suntory Pharma Co.,Ltd., priority 1999, dated 2006).
